Reference: patent publication US9073989B2, “Antibiotic comprising an antibody mimetic, its preparation methods and uses thereof” (PROTEIN DESIGN LAB, LTD, priority 2011, dated 2015)
Entries after “also recorded” stand apart in the source; their conditions may differ.

Tested on: Mycobacterium tuberculosis (H37Rv, clinical drug-resistant strain94120)
Type: cell-based

B1: Colicin Ia (protein, UniProt P06716 1-626, looked up)
Colicin-Ia: MSDPVRITNPGAESLGYDSDGHEIMAVDIYVNPPRVDVFHGTPPAWSSFGNKTIWGGNEWVDDSPTRSDIEKRDKEITAYKNTLSAQQKENENKRTEAGKRLSAAIAAREKDENTLKTLRAGNADAADITRQEFRLLQAELREYGFRTEIAGYDALRLHTESRMLFADADSLRISPREARSLIEQAEKRQKDAQNADKKAADMLAEYERRKGILDTRLSELEKNGGAALAVLDAQQARLLGQQTRNDRAISEARNKLSSVTESLNTARNALTRAEQQLTQQKNTPDGKTIVSPEKFPGRSSTNHSIVVSGDPRFAGTIKITTSAVIDNRANLNYLLSHSGLDYKRNILNDRNPVVTEDVEGDKKIYNAEVAEWDKLRQRLLDARNKITSAESAVNSARNNLSARTNEQKHANDALNALLKEKENIRNQLSGINQKIAEEKRKQDELKATKDAINFTTEFLKSVSEKYGAKAEQLAREMAGQAKGKKIRNVEEALKTYEKYRADINKKINAKDRAAIAAALESVKLSDISSNLNRFSRGLGYAGKFTSLADWITEFGKAVRTENWRPLFVKTETIIAGNAATALVALVFSILTGSALGIIGYGLLMAVTGALIDESLVEKANKFWGI
notes: Wild-type bacterial toxin secreted by E. coli forming ion channels
In the case of B1, the “growth of bacteria lawn, strain H37Rv, re-culture test” value is reported as “quantity of cells growth; also recorded: a mass of bacteria lawn growing”.

B2: PMC-AM1: Fusion of antibody mimetic AM1 (VHCDR1-VHFR2-VLCDR3, Seq ID No.2) to C-terminus of Colicin Ia; Seq ID No.6 (protein)
chain: SDPVRITNPGAESLGYDSDGHEIMAVDIYVNPPRVDVFHGTPPAWSSFGNKTIWGGNEWVDDSPTRSDIEKRDKEITAYKNTLSAQQKENENKRTEAGKRLSAAIAAREKDENTLKTLRAGNADAADITRQEFRLLQAELREYGFRTEIAGYDALRLHTESRMLFADADSLRISPREARSLIEQAEKRQKDAQNADKKAADMLAEYERRKGILDTRLSELEKNGGAALAVLDAQQARLLGQQTRNDRAISEARNKLSSVTESLNTARNALTRAEQQLTQQKNTPDGKTIVSPEKFPGRSSTNHSIVVSGDPRFAGTIKITTSAVIDNRANLNYLLSHSGLDYKRNILNDRNPVVTEDVEGDKKIYNAEVAEWDKLRQRLLDARNKITSAESAVNSARNNLSARTNEQKHANDALNALLKEKENIRNQLSGINQKIAEEKRKQDELKATKDAINFTTEFLKSVSEKYGAKAEQLAREMAGQAKGKKIRNVEEALKTYEKYRADINKKINAKDRAAIAAALESVKLSDISSNLNRFSRGLGYAGKFTSLADWITEFGKAVRTENWRPLFVKTETIIAGNAATALVALVFSILTGSALGIIGYGLLMAVTGALIDESLVEKANKFWGISYWLHWIKQRPGQGLWIGSQSTHVPRT
modifications: The amino acid sequence of antibiotic PMC-AM1
In the case of B2, the “bacteriostatic or bactericidal role” value is reported as “bactericidal effect rather than simply antibacterial effect”, the “growth of bacteria lawn, strain94120” value is reported as “no cell growth; also recorded: no growth of bacteria lawn” and the “growth of bacteria lawn, strain H37Rv, re-culture test” value is reported as “still no cell growth; also recorded: always no growth of bacteria lawn”.
